The source of these data is patent publication US5650391.

Experiment [1] deals with human low density lipoprotein receptor-related protein (LRP) on human hepatoma HepG2 cells (human) (UniProt Q07954).
Experiment [2] has as its target low density lipoprotein receptor-related protein/a2-macroglobulin receptor (LRP) on rat hepatoma MH1 C1 cells (rat).
For experiment [3] the target is unchanged. This is another data set of the same source.
The target of experiment [4] is TFPI binding sites on rat hepatoma MH1 C1 cells (receptor not identified). The experiment can be described thus: binding of ^125 I-TFPI to MH1 C1 cell monolayers at 4° C. (saturation with Scatchard analysis, and competition by unlabelled TFPI).

For the substance “receptor-associated protein (RAP), 39-kDa protein, full-length (1-319) (ligand)”, in experiment [1], the degradation of pre-bound ^125 I-TFPI by HepG2 cells (single cycle endocytosis assay) stood at 65%. Further, the inhibition of ^125 I-TFPI degradation (trichloroacetic acid-soluble radioactivity) by MH1 C1 cells, 4 h at 37° C. in experiment [2] turned out to be 80%. The substance further had a degradation of pre-bound ^125 I-TFPI in a single cycle of endocytosis in MH1 C1 cells in experiment [3] of 80%.
“recombinant human full-length tissue factor pathway inhibitor (TFPI) (from UniProt P10646) (ligand)” had a functional activity (stoichiometric inhibition of factor Xa) with factor Xa of 88%. In experiment [4], this substance came in with a Kd of 0.03 µM.

A word on the Kd: it is the free concentration of one partner at which half of the binding sites on the other are occupied at equilibrium, for simple one-to-one binding. A higher Kd goes with a looser complex.
